Where no end group is shown, it is not given here.
Assays:
[1] = molecular target: T1, Anti-CD28 scFv (VH - linker 1 - VL) (biotinylated (site not given)); assay: phage binding ELISA on anti-CD28 scFv plate; wells pre-incubated with soluble CD28 as competitor;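 note: clonal phage supernatants tested, bound phage read out with an HRP-linked anti-M13 antibody, reference wells received blocking buffer lacking CD28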
[2] = molecular target: T1, Anti-CD28 scFv (VH - linker 1 - VL); assay: phage binding ELISA; biotinylated anti-CD28 scFv on neutravidin plate, bound phage detected with anti-M13-HRP
Description: Clonal phage were harvested as crude supernatants and screened via standard enzyme linked immunosorbent assays (ELISAs). […] Prior to the addition of clonal phage, wells were incubated with blocking buffer and CD28 soluble protein or blocking buffer alone. Without washing or aspirating, clonal phage supernatants were then added to the wells and incubated for a short time. Wells were then washed followed by detection of bound phage using a horse radish peroxidase conjugated anti-M13 antibody.

anti-CD28 Fab = assay: competition ELISA, peptide titrated 0-100 uM against 1 nM anti-CD28 Fab, plate-bound CD28 as competitor
[3] = molecular target: T2, Anti-CD28 scFv (VH - linker 1 - VL) (biotinylated (site not stated)); assay: phage ELISA; biotinylated anti-CD28 scFv on neutravidin plate, clonal phage supernatant, anti-M13-HRP detection;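 note: before phage addition, wells were pretreated with soluble CD28 protein in blocking buffer, or with blocking buffer only as the comparison, then phage were added without washing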
T2 construct: Biotinylated and captured on neutravidin-coated plates in the phage panning ELISA

[4] = molecular target: anti-CD28 scFv (VH - linker 1 - VL) (biotinylated (site not stated)); assay: same phage ELISA, wells pre-incubated with soluble CD28 (competitor)
Chain of anti-CD28 scFv (VH - linker 1 - VL) (biotinylated (site not stated)) (scFv, as listed by the source): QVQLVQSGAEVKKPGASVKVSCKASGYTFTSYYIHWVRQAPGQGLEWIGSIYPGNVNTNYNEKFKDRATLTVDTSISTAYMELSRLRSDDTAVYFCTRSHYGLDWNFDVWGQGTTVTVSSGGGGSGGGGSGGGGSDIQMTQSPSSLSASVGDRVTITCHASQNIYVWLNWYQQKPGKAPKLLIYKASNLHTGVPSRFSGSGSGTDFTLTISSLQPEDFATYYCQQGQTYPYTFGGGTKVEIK

Chain of anti-CD28 Fab (VH, as listed by the source, chain 1 of 2): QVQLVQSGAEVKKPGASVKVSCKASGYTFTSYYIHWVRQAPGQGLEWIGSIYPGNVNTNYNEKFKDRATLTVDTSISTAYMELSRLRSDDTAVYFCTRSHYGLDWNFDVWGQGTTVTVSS
Chain of anti-CD28 Fab (VL, as listed by the source, chain 2 of 2): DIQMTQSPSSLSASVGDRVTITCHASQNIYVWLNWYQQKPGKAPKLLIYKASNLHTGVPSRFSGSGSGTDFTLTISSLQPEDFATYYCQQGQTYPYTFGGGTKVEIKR
T1 sequence (scFv, as listed by the source): as the sequence (scFv, as listed by the source) above
T2 sequence (scFv, as listed by the source): as above

Row | Binder | CD28 scFv signal in presence of CD28 [1] | CD28 scFv signal [2] | IC50 (anti-CD28 Fab) [µM] | further results
1 | MDWCPRYLWAECFN (cysteine pairing not given here; also: displayed on phage as fusion to pIII, fusion limits and linker not given here, Clonal phage of the Peptide-9 library, tested as crude phage supernatant; not shown: pIII of the bacteriophage) [Phage-279] | 1.14 | 2.74 | – | –
2 | WVSCLRHHWLECFH (cysteine pairing not given here; also: displayed on phage as fusion to pIII, fusion limits and linker not given here, Clonal phage of the Peptide-9 library, tested as crude phage supernatant; not shown: pIII of the bacteriophage) [Phage-274] | 0.858 | 0.723 | – | –
3 | ACAAGASYAWPYCL [Peptide-99] | – | – | 21 | –
4 | SCAAAASYAWPYCL [Peptide-100] | – | – | > 100 | –
5 | SCAAGAAYAWPYCL [Peptide-101] | – | – | 7.42 | –
6 | MDWCPSNMWNECFF (tested as crude clonal phage supernatant) [Phage-416 clonal phage peptide MDWCPSNMWNECFF] | – | – | – | CD28 scFv signal [3]: 0.983
7 | MTLCLSVDLVHCWY (cysteine pairing not given here; also: displayed on bacteriophage as fusion to pIII, fusion limits and linker not given here, Clonal phage of the Peptide-9 library, tested as crude phage supernatant; not shown: pIII of the bacteriophage) [Phage-267] | 0.093 | 0.632 | – | –
8 | MDWCPRFLWHECFN (cysteine pairing not given here; also: fused to phage pIII, linker and fusion site not given here, Clonal phage of the Peptide-9 library, tested as crude phage supernatant; not shown: pIII of the bacteriophage) [Phage-257] | 0.351 | 2.59 | – | –
9 | MDWCPRDFWAFCFF (cysteine pairing not given here; also: displayed on phage as fusion to pIII, fusion limits and linker not given here, Clonal phage of the Peptide-9 library, tested as crude phage supernatant; not shown: pIII of the bacteriophage) [Phage-270] | 0.655 | 2.37 | – | –
10 | MDWCPRDHWVDCYS (cysteine pairing not given here; also: displayed on phage as fusion to pIII, fusion limits and linker not given here, Clonal phage of the Peptide-9 library, tested as crude phage supernatant; not shown: pIII of the bacteriophage) [Phage-275] | 0.092 | 0.671 | – | –
11 | MYWCATSMWNRCFV (cysteine pairing not given here; also: displayed on phage pIII, linker not given here, Clonal phage of the Peptide-9 library, tested as crude phage supernatant; not shown: pIII of the bacteriophage) [Phage-262] | 0.415 | 0.398 | – | –
12 | ACAGHAWQYINKCL [Peptide-107] | – | – | > 100 | –
13 | YCAGHAAQYINKCL [Peptide-110] | – | – | 3.16 | –
14 | YCAGHAWAYINKCL [Peptide-111] | – | – | 12.3 | –
15 | YCAGHAWQYANKCL [Peptide-113] | – | – | 102 | –
16 | YCAGHAWQYIAKCL [Peptide-114] | – | – | 5.49 | –
17 | YCAGHAWQYINACL [Peptide-115] | – | – | > 100 | –
18 | YCAAHAWQYINKCL [Peptide-108] | – | – | > 100 | –
19 | YCAGHAWQYINKCA [Peptide-116] | – | – | 98.6 | –

Row | Binder | CD28 scFv signal in presence of CD28 [1] | CD28 scFv signal [2] | IC50 (anti-CD28 Fab) [µM] | further results
20 | YCAGHAWQAINKCL [Peptide-112] | – | – | > 100 | –
21 | YCAGAAWQYINKCL [Peptide-109] | – | – | > 100 | –
22 | MDWCPRHMWHECFA (cysteine pairing not given here; also: displayed on phage pIII, linker not given here, Clonal phage of the Peptide-9 library, tested as crude phage supernatant; not shown: pIII of the bacteriophage) [Phage-263] | 0.298 | 2.52 | – | –
23 | MNWCPKDIWYLCFN (peptide, not shown: large carriers, Clonal phage supernatant) [Phage-22] | – | – | – | CD28 scFv signal in presence of CD28 [4]: 0.168
24 | VDWCPAHMWNECYN (tested as crude clonal phage supernatant) [Phage-419 clonal phage peptide VDWCPAHMWNECYN] | – | – | – | CD28 scFv signal [3]: 0.664
25 | MDWCPLHMWHECFS (peptide, not shown: large carriers, Clonal phage supernatant) [Phage-23] | – | – | – | CD28 scFv signal in presence of CD28 [4]: 0.151
26 | DSFCTWSAWQECGR (cysteine pairing not given here; also: phage-displayed pIII fusion, pIII and linker not given here, Clonal phage of the Peptide-9 library, tested as crude phage supernatant; not shown: pIII of the bacteriophage) [Phage-269] | 0.101 | 0.13 | – | –
27 | MDWCPRSHWSECFS (cysteine pairing not given here; also: displayed on phage as fusion to pIII, fusion limits and linker not given here, Clonal phage of the Peptide-9 library, tested as crude phage supernatant; not shown: pIII of the bacteriophage) [Phage-277] | 0.087 | 0.253 | – | –
28 | MDWCPRYLWHVCFA (peptide, not shown: large carriers, cysteine pairing not given here; also: fused to phage pIII, linker not given here, Clonal phage supernatant) [Phage-36] | – | – | – | CD28 scFv signal in presence of CD28 [4]: 0.226
29 | MDWCPRNLWHACFN (cysteine pairing not given here; also: fused to phage pIII, linker and fusion site not given here, Clonal phage of the Peptide-9 library, tested as crude phage supernatant; not shown: pIII of the bacteriophage) [Phage-259] | 0.112 | 1.57 | – | –
30 | MDWCPFDLWHVCYN (cysteine pairing not given here; also: fused to phage pIII, linker and fusion site not given here, Clonal phage of the Peptide-9 library, tested as crude phage supernatant; not shown: pIII of the bacteriophage) [Phage-256] | 0.651 | 2.6 | – | –
31 | MDWCPRDLWVHCFA (peptide, not shown: large carriers, cysteine pairing not given here; also: fused to phage pIII, linker not given here, Clonal phage supernatant) [Phage-29] | – | – | – | CD28 scFv signal in presence of CD28 [4]: 0.179
32 | MDWCPRDMWSVCFS (peptide, not shown: large carriers, cysteine pairing not given here; also: fused to phage pIII, linker not given here, Clonal phage supernatant; the listing entry decides) [Phage-32] | – | – | – | CD28 scFv signal in presence of CD28 [4]: 0.207
33 | IDWCPKIHWDLCYF (cysteine pairing not given here; also: displayed on phage as fusion to pIII, fusion limits and linker not given here, Clonal phage of the Peptide-9 library, tested as crude phage supernatant; not shown: pIII of the bacteriophage) [Phage-276] | 0.082 | 0.295 | – | –
34 | MDWCPRSLWHECFA (peptide, not shown: large carriers, cysteine pairing not given here; also: fused to phage pIII, linker not given here, Clonal phage supernatant) [Phage-35] | – | – | – | CD28 scFv signal in presence of CD28 [4]: 0.255
35 | MVWCMSVGWAVCLN (cysteine pairing not given here; also: displayed on phage as fusion to pIII, fusion limits and linker not given here, Clonal phage of the Peptide-9 library, tested as crude phage supernatant; not shown: pIII of the bacteriophage) [Phage-272] | 0.284 | 0.271 | – | –
36 | VTSCPTTMWNRCFS (cysteine pairing not given here; also: displayed on bacteriophage as fusion to pIII, fusion limits and linker not given here, Clonal phage of the Peptide-9 library, tested as crude phage supernatant; not shown: pIII of the bacteriophage) [Phage-266] | 0.546 | 1.22 | – | –
37 | MDWCPMFMWHECFN (cysteine pairing not given here; also: displayed on phage as pIII fusion, fusion limits and linker not given here, Clonal phage of the Peptide-9 library, tested as crude phage supernatant; not shown: pIII of the bacteriophage) [Phage-261] | 1.04 | 2.23 | – | –
